From the nanobody polyreactivity screen of Harvey et al. (2022)

Experiment: yeast display, Sf9 membrane polyspecificity reagent, FACS + sequencing; frameworks hold sequencing errors
In short: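 Galactose induction of a Saccharomyces cerevisiae BJ5465 synthetic nanobody display library ran 36–48 hours. The cells were then stained for 1 hour at 4 °C with 10% biotinylated, detergent-solubilized Sf9 membrane reagent, pulled down on streptavidin microbeads and FACS-sorted into low and high (top ~1%) gates on expression and reagent-binding fluorescence. Labels for polyreactivity follow the gate of origin.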

Sequence | polyreactivity (PSR sort gate)
QVQLVESGGGLVQAGGSLRLSCAASGSIFRSYAMGWYRQAPGKERQLVARISKRGGSTYYADSVKGRFTISRENAKNTVYLQMNSLKPEDSAVYYCNASYFRYRYNRYVYWGQGTQVTVSS | high polyreactivity
QVQLVESGGGLVQAGGSLRLSCAASGFTFYYYAMGWYRQAPGKERELVAGINSDGNTYYADSVKGRFTISRDNAKNNVYLQMNSLKPEDTAVYYCAASKLWPKNFVRHDYWGQGTQVTVSS | low polyreactivity
QVQLVESGGGLVQAGGSLRLSCAASGRILSYYAMGWYRQAPGKERELVAAISWGGGRTFYADSVKGRFTISRDNAKNTVYLQMNSLQPEDTAVYYCNADSYRWGAHDYWGQGTQVTVSS | high polyreactivity
QVQLVESGGGLVQEGGSLRLSCAASGFTIRTYAMGWYRQAPGKERELVAAINTGGGTNYADSVKGRFTISRDNAKNTVYLQMNSLKPEDTAVYYCNSVHYYYYYWYSLYDSWGKGTQVTVSS | high polyreactivity
QVQLVESGGGLVQAGGSLRLSCAGSGSIFKRYAMGWYRQAPGKERELVAAITSRGGSTYYADSVKGRFTISRDTAKNTVYLQLNSLKPEDTAVYYCAATRSSTNGYDYWGQGTQVTVSS | high polyreactivity
QVQLVESGGGLVQAGGSLRLSCAASGFTFSAYAMGWYRQAPGKERELVAAISWSGSRTYYADSVKGRFTISRDNAKNTVYLQMNSLKPEDTAVYYCAKEPYDTFGFYEYDYWGQGTQVTVSS | low polyreactivity
QVQLVESGGGLVQAGGSLLLSSADSGSTFNYNAMGWYRQSHGKERELVAVINSGGSTYYADSVKGRFTISRDNAKNTVYLQMNSLKPEDTAVYYCAAATYRQQWHYYWGQGTQGTVSS | high polyreactivity
QVQLVESGGGLVQAGGSLRLRCAASGRIFKSYAMGWYRQAPGKERELVAAINWSGGSTYYADSVKGRFTISRDNAKNTVYLQMNSLKPEDTAVYYCNALYAVRSYDSWGQGTQVTVSS | high polyreactivity
QVQLVESGGGLVQAGGSLRLSCAASGSTFKAYAMGWYRQAPGKERELVAAITRRGTSTYYADSVKGRFTISRDNAKNTVYLQMNSLNPEDTAVYYCNAKYVSDRSSAVSFDYWGQGTQVTVSS | low polyreactivity
QVQLEESGGGLEQAGGSLRLSCAATGSIFNFYAMAWYIRAPGKERELVAAITRSGGSTYYADSVKGRFTISRDNAKNTVYLQMNSLIPEDTAVYYCSAASRKRTSREPLDYWGQGTQVTVSS | high polyreactivity
QVQLVESGGGLVQAGVSLRLSCSASGRTFSGYAMGWYRQAPGKERELVAAISGGTSTNYADSVKGRFTISRDNAKNSVYLPMNSLKPEDTAVYYCNTDVPDPYWAYWTGGYDYWGQGTHVTVSS | low polyreactivity
QVQLVESGGCLVQGGGSLRLTWAASGRTFPYNNMRRYRQAPGKERELVASITYTDGSTSYADCVKGRFTISRDNAKNTVYLQMNSLKPQDTADYYCAAVYYAHQDYRFDYWGQGTQVTVSS | low polyreactivity
QVQLVESGGGLVQAGGSLRLSCAASGRILYYNDMGWYRQAPGKERELVAAIDRGGSTSYADSVKGRFTISRDNAMNTVYLQMNSLKQEDTAVYYCAVARGGRRKYEYWGQGTQVTVSS | low polyreactivity
QVQLVESGGGLVQAGGSLRLSCAASGSTFHSYAMGRYRQAPGKEREFVAAITIRGGSTYYADSVKGRFTISRDNAKNTVYLQMNSLKPEDTAVYYCAALVWGSYARWRYYWGQGTQVTVSS | high polyreactivity
QVQLVESGGGLVQAGGSLRLSCAASGSIFSSYTMGWYRQAPGKERELVASITSGDSTNYADSVKGRFTISRDNAKNTVYLQMNSLKPEDTAVYYCNKSTLGVPVYEVIFEYWGQGTQVTVSS | low polyreactivity
QVQLVESGGGLVQAGGSLRLSCAASGSTYDNNRMGWYRQATGKERELVASITFNVGSTYYADSVKGRFTISRDNAKNTVYLQMNSLKPEETAVYYCAADDLNLSQALGYDYWGQGTQVTVSS | low polyreactivity
QVQIVESGGGLFQAGGSIRLSCSASGFTFAFYSMGWYRQAPGKERQLVAAISWSGGSTYYADSVKWRFTISRDNAKNTVYLQMNSLKPEDNAVYYCNTDRGPIGDHYDYWGQGTQVTVSS | high polyreactivity
QVQLVESGGGLVQAGGSLRLSCAASGSTFDNTMGWYRQEPGKEKEFVATISWRGGSTYYADSVKGRFTISRDNAKNTVYLQMNSLKPEDTAVYYCAAEVDYRVYWNEVDYWGQGTQVNVSS | low polyreactivity
QVQLVESGGGLVQAGGSLRLSCAASGFIFSSNAMGWYRQAPGKEREFVAAISFRGGTTYYADSVKGRFTISRDNAKNTVYLQMKSLKPEDTAVYYCNAVRWRSGRWWWYDYWGQGTQVTVSS | low polyreactivity
QVQLVESGGGLVQAGGSLRLSCAASGNIFRTYAMGWYRQAPGKERELVAAISRGGRTYYADSVKGRFTISRDNAKNSVYLQMNSLKPVDTAVYYCNVQPDRISRYDYWGQGTQVTVSS | high polyreactivity
QVQLVESGGGLVQAGGSLRLICAASGLTYFSYAMGWYRQAPGKQREFVAAITRRGGRTYYADSVKGRFTISRDNAKYTVYLQMNSLKPEDTAVYYCNAVPVLISVYRMEYWGQGTQVTVSS | high polyreactivity
QVQLVESGGGLVQAGGSLRLSCAASGRTFYVNAMGWYRQAPGKEREFVATITRTGGDTYYADSVKGRFTISRDNAKNTVYLQMNSHKPEDTAVFYCNAEGYTVKYWYSRYDYWGQGTQVTVSS | high polyreactivity

Sequence | polyreactivity (PSR sort gate)
QVQIEESGGGLVQAGGSLRLTCAASGRIFYLNAMGWYRQAPGKERELVAGITNSTTGTYYADSVKGRFTISRDNAKNSVYLQMNSLKPEDTAVFYCNTDVAYEEPVETYDYWGQGTQVTVSS | low polyreactivity
QVQLVESGGGLVQAGGSLRLSCAASGRIFGVYAMGWYRQAPGKERELVAGINGGDSTYYADSVKGRFTISRDNAKNTVYLQMNSLKPEDTAVYYCAAEADESGSNYDYWGQGTQVTVSS | low polyreactivity
QVQLVESGGGLVQAGVSLRLSCAASGSIFVHYDMGWYRPAPGKERELVADIDYSGGSTYYADSVKGRFTISRDYAKNTVYLQMNSLKPEDTAVYDCAAERRRWGLDYYYWGQGTQVTVSS | high polyreactivity
QVQLVESGGGLVQAGGSLRLSCAASGSILTDYAMGWYRQAPGKERELVATISNGGSTNYADSVKGRFTISRDNAKNTVYLQMNSLKPEDTAVYYCNAEPGVPSWELDYWGQGTQVTVSS | low polyreactivity
QVQLVESGGGLVQAGGSLRLSCAASGSIFFLYAMGWYRQAPGKERELVAGINLSGGSTYYADSVKGRFTISRDNAKNTVYLQMNSLKPEDTAVYYCNAYLPSPYSSSYIFDYDSWGQGTQVTVSS | low polyreactivity
QVKLVESGGGLVQAGGSLRLSCAASGRIFSGYAMGWYIQAPGKESEFVAAITWNGVSTYYADSVKVRFTISRDNAKNTVYLLMNSLKPEDTAVYYCAKDYVYYPSYRGSVNYWGQGTQVTVSS | low polyreactivity
QVQLVESGGGLVQAGGSLRLSCAASGRTFVVYAMGWYRQAPGKERELVAVISFTGDSTFYADSVKGRFTISRDNAKNTVYLQMNSLKPEDTAVYYCAADFRRVFSKYSYYLYFDFDYWGQGSQVTVSS | low polyreactivity
QVQLVESGGGLVQAGGSLRLSCAASGFTFPLNARGWYRQAPGKERELVAAITNGGTTYYADSVKGRFTISRDNAKNTVYLQMHSLKPEDTAVYYCAAYTYRYGSFKYGYWGQGTQVTVSS | low polyreactivity
QVQLVESGGRLVQAGGSLRLSCAPSGIIFIWNTMGWYRQAPGKESEFVAAISRSGSGTSYADSVKGRFTISRDNAKNTVYLQMNSLKPEDTAVYYCAARLECPYDMYYWGQGTQVTVSS | low polyreactivity
QVQLVESGGGLVQAGGSLRLSCAASGRTLAPNAMGWYRQAPGKERELVSTITRGGTTNYADSVKGRFTISRDNAKNTVYLQMNSLKPEDTAVYYCAKAHYLGYYQRYDYWGQGTQVTVSS | low polyreactivity
QVQLVESGGGLVQAGGSLRLSCAASGSTFSGYAMRWYRPAPGKERELVAAISWSGGSTYYADSVKGRFTISRDNAKNTVYLQMNSLKPEDTSVNYCNALESTIRGYPYDYWGQGTQVTVSS | low polyreactivity
QVQLVESGGGIVQAGASLRLSCSASGFTQYPYTMGWNRHAPGKESELVAAITSSGATTYYADSVKGRFTISRDNAKNTVYLQMNRLKTEVTAVYYCAAGRAAAFGYLGQGTQVTVSS | high polyreactivity
QVQLLESGGGLVQAGGSLRLSCAASGYIFLRNAMGWYRQAPGKERELVAAIRRTGGSTYYADSVKGRFTISRDNAKNTVYLQMNSLKPEDTAVYYCAKRSYTGYEYWGQGTQVTVSS | low polyreactivity
QVQLVESGGGLVQAGGSLRLSCAASGRIFIVYPMGWYRQAPGKERELVATITRGGSTNYADSVKGRFTISRDNAKNTVYLQMNSLKPEDTAVYYCAKGWTNRYPWPGRFRTLYDYWGQGTQVTVSS | low polyreactivity
QVQLVESGGGLVQAGGSLRLSCAASGRTLYGYTMGWYRQAPGQEREVVAAINAGGGSTYYADSVKGRFTSSRDNAKNTVYLQMNSLKPEDTAVYSCNARVRVRLGRNWSSYYYWGQGTQVTVSS | high polyreactivity
QVQLVESGGGLVQAGGSLRLSCAASGRTFYANVMGWYRQAPGKERELVAAITSGGSSYYADSVKGRFTISRDTAKNTVYLQMNSLKPDDTAVYYCAAGSNLNGVWFDYWGQGTQVTVSS | low polyreactivity
QVQLVESGGGLVQAGGSLRLSCAASGSNLGNNDMGWYRQAPGKERQLVAAISRSDVSTFYADSVKGRFTISRDNAKNTVYLQMNSLKPEDTAVSSCAARTGRGDRTRRYYYWGQGTQVTVSS | high polyreactivity
QVQILESGGGLVKAGGSLRLSCAASGYTFYANAMGWYRKAPGKEREFVASITWSGGSTYYADSVKGRFTISRDNAKNTVYLQMNSLKPEDTAVDYCAADVIGDLRWYRDEYLGQGTQVTVSS | low polyreactivity
QVQLVESGGGLVQAGGSLRLSCAASGFTFYYYAMGWYRQAPGKERELVAAINGGSSTNYADSVKGRFTISRDNAKNTVYLQMNSLKPDDTAVYYCAAETRFYRNIDKIYFVLDRVDYWGQGTQVTVSS | low polyreactivity
QVQLVESGGGLVQAGGSLRLSCAASGRTFSLYDMGWYRQAPGKERELVAAISYSGTRTYYADSVKGRFTISRDNAKNTVYLQMNCLKPEDTAVYYCARVYTVGTGRSWRLDYWGQGTQVTVSS | high polyreactivity
QVLLVESGGGLVQAGGSLRLSCAASGFIFVDYAMGWYRQAHGKERELVAAITSSGDRTYYADSVKGRFTISRDNAKNTVYLQMNSLKPEDTAVYYCNADWSTACYTSYDYWGQGTQVTVSS | low polyreactivity
